Data as given in the supplement of paper PMC9170038.

Test system: MS2 coat protein
Assay: apparent KD of MS2 coat protein; designed switch direction (-1 OFF switch, 1 ON switch): -1; higher = weaker reporter binding
Procedure, shortened: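 SNAP-549-labelled MS2 coat protein was titrated, doubling from 0.7 or 1.5 nM to 3 µM, over designed RNA switches transcribed on Illumina chips by stalled E. coli RNA polymerase. Runs were done without input, with 200 uM small-molecule ligand, or with an oligonucleotide input. Apparent KD is the per-design median over clusters of curve-fitted normalised fluorescence.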

[1] = Eterna round: R95, input ligand: microRNA oligo, concentration not stated
[2] = input ligand: microRNA oligo, concentration not stated
[3] = Eterna round: R95, input ligand: FMN 200 uM
[4] = Eterna round: R95, input ligand: none

Row | Sequence | apparent KD of MS2 coat protein [1] | apparent KD of MS2 coat protein (input ligand: FMN 200 uM) | apparent KD of MS2 coat protein (input ligand: none) | further results
1 | CUCGGACAUGAGGAUCACCCAUGUGAGGAUAUGGUGCUAUCGUCAUUAGACGAUUGCGUUAGAAGGCACAUUUU [LRO-Excl1-29] (puzzle: Exclusion 1) | 29.5 nM | – | – | –
2 | CUCGUGCAGCAAAGCUGUACGAGUACAUGAGGAUCACCCAUGUAGGAUAUGGUACGCAAAGCGUGCUAGAAGGACGUGUGUAUG [Mat - Exclusion NG 3 - Mod of JL - D91] (Eterna round: R96, puzzle: Exclusion NG 3) | – | 134 nM | 58 nM | apparent KD of MS2 coat protein [2]: 28.7 nM
3 | CUCGUGUAAGGAUAUGCGAGCCACGGAAAUAAAACGUGGAGGUAGAAGGUACAUGAGGAUCACCCAUGUAAAAC [Anonveat] (puzzle: Exclusion 4) | 24.3 nM | – | – | –
4 | CUCGUGUAAGGAUAUGCGAGCCGCGGAAAUACACCGCGGAGGUAGAAGGUACAUGAGGAUCACCCAUGUAAAAC [Edisora] (puzzle: Exclusion 4) | 26.6 nM | – | – | –
5 | CUCUAACACGCAGGAUAUGCAUCACCAUAAUUAGCAGAAGGGCGAAACACAUGAGGAUCACCCAUGUUGAGGAUCACCCAUGAC [Default title] (Eterna round: R96, puzzle: Exclusion NG 1) | – | 22.1 nM | 23.6 nM | apparent KD of MS2 coat protein [2]: 19.9 nM
6 | CUCUAGUCAGGAUAUUAGUUGCCGCCUGGACACAAGCGGCAUGAGAAGGGACUUGAGGAUCACCCAAGUAAAAG [Tibela] (Eterna round: R97, puzzle: Exclusion 4) | – | 2850 nM | 393 nM | –
7 | CUCUAGUCAGGAUAUUAGUUGUCGCCCAGCAACGGGCGACAUGAGAAGGGACUUGAGGAUCACCCAAGUAAACG [Leorteti] (Eterna round: R97, puzzle: Exclusion 4) | – | 279 nM | 478 nM | –
8 | CUCUCGGUAGGAUAUCCUCCGCCGAACAUGAGGAUCACCCAUGUCACUGCCACUACGCUAGGAGAAGGGCCAGACG [Eternabot (L2) Solution 55] (Eterna round: R97, puzzle: Exclusion 5) | – | 81.6 nM | 85.8 nM | –
9 | CUCUGCACGCUGCGGUCCUACAUGAGGAUCACCCAUGUGGUCUGGUGGCGUGGGUCACCGGACUUGGCUCGUCUUGC [salish99_S_TOV1_R5_051] (Eterna round: R97, puzzle: Sensor, turn-off variant 1) | – | 21 nM | 22.7 nM | –
10 | CUCUUAUCUUAGGAUAUUUUACCGCAAGUGGUGGGAGAAGGGAGCACAUGAGGAUCACCCAUGUUAGCUGGGCU [Eternabot (L2) Solution 19] (Eterna round: R97, puzzle: Exclusion 6) | – | 22.1 nM | 20.5 nM | –
11 | CUCUUGGCAGGAUAUGCAAUUUUAGACAUGAGGAUCACCCAUGUGAUCAUUCCAUAUUAUGCAGAAGGGCCUAAAC [JR_E5_Sub049] (Eterna round: R96, puzzle: Exclusion 5) | – | 238 nM | 39.2 nM | apparent KD of MS2 coat protein [2]: 27.4 nM
12 | CUCUUGGCAGGAUAUGCAAUUUUAGACAUGAGGAUCACCCAUGUGAUCAUUCCAUAUUAUGCAGAAGGGCCUAAAC [JR_E5_Sub049] (puzzle: Exclusion 5) | 54.3 nM | – | – | –
13 | CUCUUGUUAGGAUAUCAAACCAGCGGCGGAACCGCUGGAAGUGAGAAGGGACAUGAGGAUCACCCAUGUAAGAA [Usrebiis] (puzzle: Exclusion 4) | 39.3 nM | – | – | apparent KD of MS2 coat protein [3]: 161 nM; apparent KD of MS2 coat protein [4]: 64.8 nM
14 | CUCUUGUUAGGAUAUCAAACCGGCGGCGGAGCCACCGGAAGUGAGAAGGGACAUGAGGAUCACCCAUGUAAGAA [Islaariste] (puzzle: Exclusion 4) | 60.9 nM | – | – | apparent KD of MS2 coat protein [3]: 220 nM; apparent KD of MS2 coat protein [4]: 67.3 nM
15 | CUGAACAUAGGAUAUACAUGAGGAUCACCCAUGUAUAUAAAAGGGUGUUCCAACUAAAGUAGAAGGAUGUAUAG [ExFusion 4 - Jieux - Exclusion 3] (Eterna round: R97, puzzle: Exclusion 3) | – | 45.1 nM | 57.8 nM | –
